Laboratory results as given in patent US20210340217A1, “NOVEL PEPTIDES AND COMBINATION OF PEPTIDES FOR USE IN IMMUNOTHERAPY AGAINST OVARIAN CANCER AND OTHER CANCERS” (Immatics Biotechnologies GmbH, priority 2017, published 2021).

Molecular target: HLA-A*24:02 (Homo sapiens, UniProt P04439, D101N/D140Y/D185E/E176V/E190D/F33S/G103R/G107R/I119L/I121M/I306V/K335N/L105A/L180Q/L300P/N151K/N90K/Q86E/Q94H/R106L/R138H/R89G/T104I/T345S/V100E/W191G/Y123F)
Assay: MHC binding assay (UV-ligand exchange, beta2m ELISA)
Details: peptide exchange yield
Outline: (§1)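 Peptide–MHC complexes formed by UV-induced exchange of a UV-cleavable peptide for the test peptide. Exchange yield measured by streptavidin-capture ELISA detecting β2m (HRP anti-β2m, TMB, A450) on 100-fold diluted samples. Quantified against refolded HLA-A*02:01/MLA-001 standards (15-500 ng/ml).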

Substance	Peptide exchange
77 (RYGPVFTV; listed as Homo sapiens) [compound 77]	++++ (>75% = ++++)
14 (FYFPTPTVL; listed as Homo sapiens) [compound 14]	++++ (>75% = ++++)
17 (RFTTMLSTF; listed as Homo sapiens) [compound 17]	++++ (>75% = ++++)
255 (VFVSFSSLF; listed as Homo sapiens) [compound 255]	+++ (>50 = +++)
252 (LYQPRASEM; listed as Homo sapiens) [compound 252]	+++ (>50 = +++)

Molecular target: HLA-A*01:01 (Homo sapiens, UniProt P04439, A114D/A174V/A182V/D101N/D185E/E176A/E190D/L180R/Q94H/R68K/S129P/T187R/V100A/V91M/W191G)
Assay: as above
Details: peptide exchange yield
Outline: as §1

Substance	Peptide exchange
31 (LLDEGAMLLY; listed as Homo sapiens) [compound 31]	++++ (>75% = ++++)
113 (QLDSNRLTY; listed as Homo sapiens) [compound 113]	+++ (>50 = +++)
116 (VLLDEGAMLLY; listed as Homo sapiens) [compound 116]	++ (>20% = ++)
288 (SPVTSVHGGTY; listed as Homo sapiens) [compound 288]	++ (>20% = ++)
112 (TVTGAEQIQY; listed as Homo sapiens) [compound 112]	++ (>20% = ++)
291 (ETIRSVGYY; listed as Homo sapiens) [compound 291]	+++ (>50 = +++)
115 (FVDNQYWRY; listed as Homo sapiens) [compound 115]	+++ (>50 = +++)
289 (RWEKTDLTY; listed as Homo sapiens) [compound 289]	++ (>20% = ++)
290 (DMDEEIEAEY; listed as Homo sapiens) [compound 290]	++ (>20% = ++)
114 (VMEQSAGIMY; listed as Homo sapiens) [compound 114]	++ (>20% = ++)
292 (NVTMKVVSVLY; listed as Homo sapiens) [compound 292]	+++ (>50 = +++)

System: CD8+ T cells
Assay: In vitro immunogenicity for MHC class I presented peptides (in vitro priming of CD8+ T cells with aAPCs, pMHC multimer readout)
Format: cell-based, human
Details: not given
Method: In order to obtain information regarding the immunogenicity of the TUMAPs of the present invention, the inventors performed investigations using an in vitro T-cell priming assay based on repeated stimulations of CD8+ T cells with artificial antigen presenting cells (aAPCs) loaded with peptide/MHC complexes and anti-CD28 antibody. […]
Generation of pMHC/anti-CD28 coated beads, T-cell stimulations and readout was performed in a highly defined in vitro system using four different pMHC molecules per stimulation condition and 8 different pMHC molecules per readout condition. […]
800.000 beads/200 μl were coated in 96-well plates in the presence of 4×12.5 ng different biotin-pMHC, washed and 600 ng biotin anti-CD28 were added subsequently in a volume of 200 μl. […] For the pMHC multimer readout using 8 different pMHC molecules per condition, a two-dimensional combinatorial coding approach was used as previously described (Andersen et al., 2012) with minor modifications encompassing coupling to 5 different fluorochromes. […] Peptide specific cells were calculated as percentage of total CD8+ cells. […] In vitro priming of specific multimer+ CD8+ lymphocytes was detected by comparing to negative control stimulations.

Substance	Wells positive [%]
773 (ALYGKLLKL; listed as Homo sapiens) [compound 773]	+++ (50%-69% = +++)
774 (VYVDDIYVI; listed as Homo sapiens) [compound 774]	+++ (50%-69% = +++)
